Results on one molecule are retold here after US20200270365A1 (JIANGSU HENGRUI MEDICINE, published 2020).

Read-outs that look alike come from different tables or passages of the source.

Assay [1] has as its target T1, PCSK9 D374Y mutant protein inserted with biotin receiving peptide BP15 and His-tag: PCSK9-D374Y-BP15-His6 (human, UniProt Q8NBP7 153-692; A8T644 31-152, biotin on the BP15 biotin receiving peptide).
T1 construct: also called PCSK9-Y; mutant PCSK9
Kind of assay: ELISA, biotin PCSK9-Y on streptavidin plate. The procedure: The binding ability of anti-PCSK9 antibodies of the present invention to PCSK9-Y protein (mutant PCSK9, SEQ ID NO: 6) was detected by measuring the amounts of antibodies binding to PCSK9-Y immobilized on the ELISA plate.
Streptavidin (sigma, CAT #S4762) was diluted to 2 μg/ml with PBS and was added into a 96-well ELISA plate, at 4° C. for overnight. The plate was washed and then was blocked with Tris buffer (including 0.9 mM CaCl₂, 0.05% Tween 20 and 5% skim milk) at 37° C. for 2 hours. The plate was washed and 100 μl/well of biotin-labeled PCSK9-Y (produced in-house, diluted with Tris buffer containing 0.9 mM CaCl₂, 0.05% Tween 20 and 1% skim milk) was added and incubated at 37° C. for 1 hour. After the wash step, various concentrations of diluted PCSK9 antibody samples were added to the plate and incubated at 37° C. for 1 hour. […] Then the plate was washed and tetramethyl brenzidine solution was added for development. Finally, the stop buffer was added and the OD450 value was measured on the Microplate reader, and then EC50 was calculated.

The target in assay [2] is T1, PCSK9 D374Y mutant protein inserted …. Kind of assay: competition ELISA, LDLR-FC coated, biotin PCSK9-Y + antibody. The procedure: The blocking ability of PCSK9 antibodies according to the present invention for the binding of LDLR-FC and PCSK9-Y (mutant PCSK9, SEQ ID NO: 6) was tested by measuring the amount of PCSK9-Y binding to LDLR in the presence of the antibodies.
(§1) LDLR-FC (produced in-house, with sequence of SEQ ID NO: 8) was diluted to 2 μg/ml with phosphate buffer and was added into the 96-well ELISA plate, at 4° C. overnight. The plate was washed and then blocked with Tris buffer (including 0.9 mM CaCl₂, 0.05% Tween 20 and 5% skim milk) at 37° C. for 2 hours. Then the plate was washed and 100 μl/well of mixture of biotin-labeled mutant PCSK9 (diluted to 1 μg/ml with Tris buffer containing 0.9 mM CaCl₂, 0.05% Tween 20 and 1% skim milk) and antibody samples (diluted with Tris buffer containing 0.9 mM CaCl₂, 0.05% Tween 20 and 1% skim milk) was added and incubated at 37° C. for 1 hour. Then the plate was washed again and horseradish peroxidase-streptavidin (sigma, CAT #S2438) was added and incubated at 37° C. for 1 hour. Then the plate was washed and tetramethyl brenzidine solution was added for development. Finally, the stop buffer was added and OD450 value was measured on the Microplate reader, then IC50 value was calculated.

Assay [3] deals with T2, PCSK9-D374Y mutant protein with His-tag: PCSK9-D374Y-His6 (human, UniProt Q8NBP7 153-692; A8T644 31-152).
T2 construct: also called PCSK9-Y; PCSK9-Y antigen
In words: SPR Biacore X100, antibody captured by anti-Fc pAb on CM5, PCSK9-Y mobile phase. The procedure:
(§2) Different back mutations were selected for combination (Table 3) after CDR grafting. The designed humanized sequences were fully-gene synthesized and heavy and light chains were combined with each other for mammalian expression (Table 4). After purification of the protein, the blocking activity test was performed similarly to that for chimeric antibodies (see test 3 and 4 for the method and the results are shown in Table 5). Some cloned proteins were selected and were determined for dissociation constants by Surface Plasmon resonance (SPR) (Biacore X100, GE, see test 5). The sample to be tested was captured by the Amine-Coupling Anti-Fc pAb (GE) on the CM5 chip (GE). PCSK9 (SEQ ID NO: 1) or PCSK9-Y (SEQ ID NO: 4) was the mobile phase, working buffer was 1×HBS-EP⁺, pH 7.4, regeneration bu0ffer was 3 M MgCl₂.

The target of assay [4] is T1, PCSK9 D374Y mutant protein inserted …. Kind of assay: competition ELISA, LDLR-FC coated, biotin PCSK9-Y + antibody. The procedure:
as §2
LDLR-FC (produced in-house, with sequence of SEQ ID NO: 8) was diluted to 2 μg/ml with phosphate buffer and was added into the 96-well ELISA plate, at 4° C. overnight. The plate was washed and then blocked with Tris buffer (including 0.9 mM CaCl₂, 0.05% Tween 20 and 5% skim milk) at 37° C. for 2 hours. […] Finally, the stop buffer was added and OD450 value was measured on the Microplate reader, then IC50 value was calculated.
The source holds these as a separate data set.

Assay [5] deals with T3, PCSK9 with His-tag: PCSK9-His6 (human, UniProt Q8NBP7 153-692; A8T644 31-152).
T3 construct: also called huPCSK9; human PCSK9 antigen
In words: SPR Biacore X100, antibody captured by anti-Fc pAb on CM5, PCSK9 mobile phase. The procedure:
as §2

For assay [6], the target named is T4, PCSK9 protein inserted with biotin receiving peptide BP15 and His-tag: PCSK9-BP15-His6 (human, UniProt Q8NBP7 153-692; A8T644 31-152, biotin on the BP15 biotin receiving peptide (labeled during the expression)).
T4 construct: also called WT PCSK9; PCSK9 WT
Kind of assay: competition ELISA, LDLR-FC coated, biotin PCSK9 + antibody. As to the method: The blocking ability of PCSK9 antibodies according to the present invention for the binding of LDLR-FC (produced in-house, with sequence of SEQ ID NO: 8) and PCSK9 (SEQ ID NO: 5) was tested by measuring the amount of PCSK9 binding to LDLR in the presence of the antibodies.
as §1, with “LDLR-FC” for “LDLR-FC (produced in-house, with sequence of SEQ ID NO: 8)”, “to 5” for “to 2”, “plate, kept” for “plate,”, “biotin-labeled” for “biotin-labeled mutant”, “to 2” for “to 1”

Assay [7] concerns the target T4, PCSK9 protein inserted with biotin …. Described as above. The procedure: as §2
LDLR-FC was diluted to 5 μg/ml with phosphate buffer and was added into the 96-well ELISA plate, kept at 4° C. overnight. The plate was washed and then blocked with Tris buffer (including 0.9 mM CaCl₂, 0.05% Tween 20 and 5% skim milk) at 37° C. for 2 hours. […] Finally, the stop buffer was added and OD450 value was measured on the Microplate reader, then IC50 value was calculated.
This is another data set of the same source.

For assay [8] the target is unchanged. Kind of assay: ELISA, biotin PCSK9 on streptavidin plate. The procedure:
The binding ability of anti-PCSK9 antibodies of the present invention to PCSK9 protein (WT PCSK9, SEQ ID NO: 5) was detected by measuring the amounts of antibodies binding to PCSK9 immobilized on the ELISA plate.
Streptavidin (sigma, CAT #S4762) was diluted to 2 μg/ml with PBS and was added into a 96-well ELISA plate, at 4° C. for overnight. The plate was washed and then was blocked with Tris buffer (including 0.9 mM CaCl₂, 0.05% Tween 20 and 5% skim milk) at 37° C. for 2 hours. Then the plate was washed again and 100 μl/well of biotin-labeled PCSK9 (produced in-house, diluted with Tris buffer containing 0.9 mM CaCl₂, 0.05% Tween 20 and 1% skim milk) was added and incubated at 37° C. for 1 hour. After the wash step various concentrations of diluted PCSK9 antibody samples was added to the plate and incubated at 37° C. for 1 hour. […] Then the plate was washed and tetramethyl brenzidine solution was added for development. Finally, the stop buffer was added and the OD450 value was measured on the Microplate reader, and then EC50 was calculated.

B1: humanized antibody h011-3 (antibody, V domains shown)
VH: QVQLVQSGAEVKKPGASVKVSCKASGYTFTGYTIHWVRQAPGQGLEWMGYINPSSTYTKFNQKFKDRVTMTRDTSISTAYMELSRLRSDDTAVYYCARERIYSNYWFFDVWGQGTTVTVSS
VL: DIVMTQSPSSLSASVGDRVTITCKASQNVYTAVAWYQQKPGKSPKLLIYSASNRYTGVPSRFSGSGSGTDFTLTISSLQPEDFATYFCQQYSSYPYTFGGGTKVEIK
notes: h011_VH.1 with h011_VL.1B
As for B1, the EC50 is 1.78 µg/mL in assay [1] and 0.00719 µg/mL in assay [8]. Besides, the IC50 in assay [2] was 5.49 µg/mL; in assay [4], 5.13 µg/mL; in assay [6] it was 0.681 µg/mL; in assay [7], 0.205 µg/mL. Besides, the Kd in assay [3] turned out to be 34.5 nM; in assay [5], 0.263 nM. The koff came out at 0.00578 s⁻¹ in assay [3] and 1.88e-05 s⁻¹ in assay [5]. The kon in assay [3] is 168000 M⁻¹ s⁻¹; in assay [5], 71300 M⁻¹ s⁻¹.
